US20220204643A1 (published 2022)
Values belong to the binder of their own block, whether it stands above or below them.

Columns and labels:
PAGE family member 2 = biological target: T1, PAGE family member 2 (human, UniProt Q7Z2X7 1-111)
T1 construct: HuProt array protein, full-length recombinant from yeast; also called PAGE2
T1 sequence: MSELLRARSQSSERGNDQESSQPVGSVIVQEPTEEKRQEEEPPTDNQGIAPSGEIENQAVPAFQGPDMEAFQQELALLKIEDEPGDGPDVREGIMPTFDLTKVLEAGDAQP

[1] = biological target: T2, keratin associated protein 12-3 (human, UniProt P60328 1-96)
T2 construct: HuProt array protein, full-length recombinant from yeast; also called KRTAP12-3
T2 sequence: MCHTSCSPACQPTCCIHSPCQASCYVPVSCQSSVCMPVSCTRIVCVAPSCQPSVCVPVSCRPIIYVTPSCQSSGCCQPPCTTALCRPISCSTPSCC

[2] = biological target: T3, Dpy-30 histone methyltransferase complex regulatory subunit (human, UniProt Q9C005 1-99)
T3 construct: HuProt array protein, full-length recombinant from yeast

[3] = biological target: T4, rhophilin associated tail protein 1 like, transcript variant 2 (human, UniProt Q96C74 1-230)
T4 construct: HuProt array protein, full-length recombinant from yeast; also called ROPN1L
T4 sequence: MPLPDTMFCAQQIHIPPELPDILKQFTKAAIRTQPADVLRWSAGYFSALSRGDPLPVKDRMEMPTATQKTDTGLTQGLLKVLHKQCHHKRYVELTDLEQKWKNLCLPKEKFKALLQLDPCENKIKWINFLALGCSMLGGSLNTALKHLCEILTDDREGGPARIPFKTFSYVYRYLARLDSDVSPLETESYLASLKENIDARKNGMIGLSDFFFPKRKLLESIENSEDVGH

[4] = biological target: T5, methionyl-tRNA synthetase 1 (human, UniProt P56192 1-900)
T5 construct: HuProt array protein, full-length recombinant from yeast; also called MARS
T5 sequence: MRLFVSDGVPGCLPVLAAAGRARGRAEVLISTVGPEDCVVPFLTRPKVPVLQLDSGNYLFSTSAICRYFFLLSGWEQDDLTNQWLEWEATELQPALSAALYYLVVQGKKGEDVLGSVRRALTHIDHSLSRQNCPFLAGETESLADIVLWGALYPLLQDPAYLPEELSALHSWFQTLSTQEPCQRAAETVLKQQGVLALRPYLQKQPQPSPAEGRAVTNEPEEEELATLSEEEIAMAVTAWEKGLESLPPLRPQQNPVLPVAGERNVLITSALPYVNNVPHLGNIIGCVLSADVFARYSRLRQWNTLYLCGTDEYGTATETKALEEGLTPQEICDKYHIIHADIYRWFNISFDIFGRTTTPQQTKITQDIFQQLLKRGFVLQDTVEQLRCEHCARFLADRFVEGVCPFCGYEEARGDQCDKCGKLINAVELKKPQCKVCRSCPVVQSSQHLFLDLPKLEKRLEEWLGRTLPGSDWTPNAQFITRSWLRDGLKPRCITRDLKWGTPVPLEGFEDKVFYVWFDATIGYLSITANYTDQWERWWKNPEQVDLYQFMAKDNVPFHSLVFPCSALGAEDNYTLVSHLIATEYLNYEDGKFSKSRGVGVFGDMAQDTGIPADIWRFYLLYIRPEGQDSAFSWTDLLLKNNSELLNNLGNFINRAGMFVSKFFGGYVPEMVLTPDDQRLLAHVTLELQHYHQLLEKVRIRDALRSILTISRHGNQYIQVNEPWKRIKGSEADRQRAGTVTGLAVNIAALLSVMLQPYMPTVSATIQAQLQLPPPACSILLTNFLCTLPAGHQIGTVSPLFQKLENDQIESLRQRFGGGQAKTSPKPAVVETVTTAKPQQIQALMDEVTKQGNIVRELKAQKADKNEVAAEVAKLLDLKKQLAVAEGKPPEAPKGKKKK

enolase 2 = biological target: T6, enolase 2 (human, UniProt P09104 2-434)
T6 construct: HuProt array protein, full-length recombinant from yeast; also called ENO2

[5] = biological target: T7, serpin family B member 6, transcript variant 2 (human, UniProt P35237 1-376)
T7 construct: HuProt array protein, full-length recombinant from yeast; also called SERPINB6
T7 sequence: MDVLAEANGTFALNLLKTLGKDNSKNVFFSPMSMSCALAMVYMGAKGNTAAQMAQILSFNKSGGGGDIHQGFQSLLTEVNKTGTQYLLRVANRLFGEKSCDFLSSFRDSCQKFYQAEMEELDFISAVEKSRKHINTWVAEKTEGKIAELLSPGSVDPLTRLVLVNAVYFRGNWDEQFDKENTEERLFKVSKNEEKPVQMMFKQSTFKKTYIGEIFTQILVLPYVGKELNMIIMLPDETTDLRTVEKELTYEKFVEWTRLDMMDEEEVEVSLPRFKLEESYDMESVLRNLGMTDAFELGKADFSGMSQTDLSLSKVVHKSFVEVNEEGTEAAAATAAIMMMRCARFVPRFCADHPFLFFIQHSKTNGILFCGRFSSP

[6] = biological target: T8, Jupiter microtubule associated homolog 2 (human, UniProt Q9H910 1-190)
T8 construct: HuProt array protein, full-length recombinant from yeast; also called HN1L
T8 sequence: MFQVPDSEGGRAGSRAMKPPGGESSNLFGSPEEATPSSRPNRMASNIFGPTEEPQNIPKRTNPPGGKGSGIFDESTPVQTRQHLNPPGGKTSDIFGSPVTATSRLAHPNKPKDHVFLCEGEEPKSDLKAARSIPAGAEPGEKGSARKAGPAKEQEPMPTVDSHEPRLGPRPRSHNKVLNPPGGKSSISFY

BTB domain containing 8 = biological target: T9, BTB domain containing 8 (human, UniProt Q5XKL5 1-374, limits assumed)
T9 construct: HuProt array protein, full-length recombinant from yeast; also called BTBD8

[7] = biological target: T10, microtubule associated protein RP/EB family member 2, transcript variant 1 (human, UniProt Q15555 1-327)
T10 construct: also called MAPRE2

[8] = biological target: T11, interleukin 27 receptor subunit alpha (human, UniProt Q6UWB1 33-636, limits assumed)
T11 construct: also called IL27RA
T11 sequence: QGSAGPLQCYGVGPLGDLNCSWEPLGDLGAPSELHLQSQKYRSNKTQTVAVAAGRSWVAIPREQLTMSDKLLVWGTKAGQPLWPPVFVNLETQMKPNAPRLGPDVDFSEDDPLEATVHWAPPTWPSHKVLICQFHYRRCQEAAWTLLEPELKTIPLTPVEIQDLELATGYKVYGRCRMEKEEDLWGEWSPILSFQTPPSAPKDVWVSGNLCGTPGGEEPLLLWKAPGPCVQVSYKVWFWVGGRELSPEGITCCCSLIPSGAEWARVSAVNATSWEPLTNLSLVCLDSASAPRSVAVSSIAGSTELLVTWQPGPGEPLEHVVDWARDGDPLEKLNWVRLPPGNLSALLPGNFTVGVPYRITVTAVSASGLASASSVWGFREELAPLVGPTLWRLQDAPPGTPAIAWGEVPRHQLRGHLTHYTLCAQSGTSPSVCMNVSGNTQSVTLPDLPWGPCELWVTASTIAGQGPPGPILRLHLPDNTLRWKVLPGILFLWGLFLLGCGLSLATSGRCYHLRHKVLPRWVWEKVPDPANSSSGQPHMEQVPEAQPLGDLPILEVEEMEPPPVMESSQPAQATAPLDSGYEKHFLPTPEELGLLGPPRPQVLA

T10 sequence (Q15555 whole entry, change not shown): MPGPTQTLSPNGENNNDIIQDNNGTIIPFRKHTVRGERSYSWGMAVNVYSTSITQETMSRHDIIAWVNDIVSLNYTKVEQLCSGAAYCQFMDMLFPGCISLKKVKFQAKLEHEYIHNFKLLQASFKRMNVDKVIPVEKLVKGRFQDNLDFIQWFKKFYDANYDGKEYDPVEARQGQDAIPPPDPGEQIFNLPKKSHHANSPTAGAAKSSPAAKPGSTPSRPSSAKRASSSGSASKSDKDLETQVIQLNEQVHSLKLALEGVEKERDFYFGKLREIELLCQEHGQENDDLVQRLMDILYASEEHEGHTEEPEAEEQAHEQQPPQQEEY
T3 sequence (Q9C005 whole entry, one chain of several): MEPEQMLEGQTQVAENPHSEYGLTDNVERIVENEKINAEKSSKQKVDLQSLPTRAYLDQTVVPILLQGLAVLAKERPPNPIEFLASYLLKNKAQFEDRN
T6 sequence (P09104 2-434 limits assumed): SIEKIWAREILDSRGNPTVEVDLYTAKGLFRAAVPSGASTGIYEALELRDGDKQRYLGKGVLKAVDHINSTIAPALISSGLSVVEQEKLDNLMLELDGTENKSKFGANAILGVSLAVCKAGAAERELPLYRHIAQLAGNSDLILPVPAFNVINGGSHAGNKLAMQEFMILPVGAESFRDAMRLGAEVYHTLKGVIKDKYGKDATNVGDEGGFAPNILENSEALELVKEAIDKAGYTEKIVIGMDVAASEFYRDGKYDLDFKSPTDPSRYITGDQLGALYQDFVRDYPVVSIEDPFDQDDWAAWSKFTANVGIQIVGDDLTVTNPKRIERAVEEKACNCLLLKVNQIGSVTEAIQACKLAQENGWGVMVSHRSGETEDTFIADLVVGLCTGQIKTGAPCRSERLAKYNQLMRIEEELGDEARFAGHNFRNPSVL
T9 sequence (Q5XKL5 other isoform, or with tags, fused parts or gaps limits assumed): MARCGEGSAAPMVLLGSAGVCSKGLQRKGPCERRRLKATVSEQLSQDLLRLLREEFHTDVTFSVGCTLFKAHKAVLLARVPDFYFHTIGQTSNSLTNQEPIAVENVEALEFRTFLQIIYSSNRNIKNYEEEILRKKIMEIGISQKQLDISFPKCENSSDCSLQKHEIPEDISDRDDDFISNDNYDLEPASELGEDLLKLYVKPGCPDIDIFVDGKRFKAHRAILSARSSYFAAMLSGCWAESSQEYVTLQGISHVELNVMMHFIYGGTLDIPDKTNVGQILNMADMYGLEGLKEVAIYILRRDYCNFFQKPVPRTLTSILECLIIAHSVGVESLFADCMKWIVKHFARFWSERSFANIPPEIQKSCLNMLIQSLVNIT

binding result [6]: binds
binding result (BTB domain containing 8): binds
B6: TMES1002 (antibody, V domains shown)
VH: QVQVVESGGGLVKPGGSLRLSCAVSGLDFRDYYVNWIRQAPGKGLEWLSYITSPGGHTSYSDSVKGRFTISRDNAKNSVYLQMDSLTVEDTAVYFCAIKEGYGLSDWGQGTLVTVSS
VL: EIVLTQSPVTLSLSPGERATLSCRASQSVSSSYIAWYQQKPGQAPRLLIYGASTRATGIPDRFSGSGSGTDFTLTISRLEPEDCAVFYCQQYGSSHYTFGQGTKLEIKR
notes: detected with anti-human IgG Fc

binding result [7]: binds
B7: TMES1004 (antibody, V domains shown)
VH: QVQLVQSGAEVKKPGASVKISCKASGYTFTSHAIHWVRQAPGQTFEWLGWINPVNGVTKYSQTFQDRVTIVRDKSATTTYMDLSGLTFEDTAMYYCARVLDFYGSSVLDYWGQGTLVTVSS
VL: QSALTQPASVSGSPGQSITISCTGTSSDIGTYNLVSWYQQRPGKAPKLIIYDVIKRPSGISDRFSGSKSDNMASLTISGLQAEDEAHYYCCSYRSSTAPVVFGGGTKVTVL

binding result [8]: binds
B8: TOVA1002 (antibody, V domains shown)
VH: QVQLVESGGGVVQPGRSLRLSCAASGFTFSNFAMHWVRQAPGKGLEWVVVISSDGSNKNYADSVKGRFTISRDNSKNTLYLQMNSLRAEDTAVYYCARDLGVGSTTYWGQGTLVTVSS
VL: SYVLTQPPSVSVAPGQTARITCGGNNIGSKSVHWYQQKPGQAPVLVVYDDSDRPSGIPERFSGSNSGNTATLTISRVEAGDEADYYCQVWDGYSDPLVFGGGTKLTVLG

Second part, the binder before the results:

B1: TMEL1035 (antibody, V domains shown)
VH: QVQLVESGGGVVQPGRSLRLSCAASGFTFSSYAMHWVRQAPGKGLEWVAVISYDGSNKYYADSVKGRFTISRDNSKNTLYLQMNSLRAEDTAVYYCASPIAVAAPFAYWGQGTLVTVSS
VL: VSSELTQDPAVSVALGQTVRITCQGDSLRSYYASWYQQKPGQAPVLVIYGKNNRPSGIPDRFSGSSSGNTASLTITGAQAEDEADYYCNSRDSSGNLYVFGTGTKVTVLG
notes: as for B6
binding result (PAGE family member 2): binds
binding result [1]: binds

B2: TMEL1041 (antibody, V domains shown)
VH: EVQLLESGGGLVQPGGSLRLSCAASGFTFRIYAMSWVRQAPGKGLEWVSAISYSGNTTYYADSVKGRFTISRDNSKNTLYLQINNLRAEDTAIYYCAIQEKRELQLRRELDNYWGQGTLVTVSS
VL: PYELTQPPSVSLSPGQTARITCSGDALPKKYAYWYQQKSGQAPVLVIYEDSKRPSGIPERFSGSSSGTTATLTISGAQVDDEGDYYCYSPDSSGNVWVFGGGTKLTVLG
notes: as for B6
binding result [2]: binds
binding result [3]: binds

B3: TMEL1038 (antibody, V domains shown)
VH: QVQLVQSGAEVKKPGASVKVSCQASGYTFTGYYIHWVRQAPGQGLEWMGWINPNSGGTNYAQKFQGRVTMTRDTSISTAHMELGRLRSDDTAVYYCATPPSRYGGNYYADYWGQGTLVTVSS
VL: ASALTQPASVSGSPGQSITISCTGTSSDVGGYNYVSWYQQHPGKAPQLMIFDVSNRPSGVSNRFSGSKSGDTASLTISGLQAEDEADYYCSSYTSSSTWVFGGGTKLTVLG
notes: as for B6
binding result [4]: binds

B4: TMEL1037 (antibody, V domains shown)
VH: PLQLQESGPGLVKPSETLSLTCTVSGGSISSSSYYWGWIRQSPGKGLEWMGSIYYSGSTYYNPSLKSRVTISVDTSKNQFSLNLSSVTAADTAVYYCARHDYRNYFDYWGQGTLVTVSS
VL: not shown
notes: as for B6
binding result (enolase 2): binds

B5: TMEL1040 (antibody, V domains shown)
VH: EVQLVQSGAEVKKPGESLKISCKGSGYSFTTYWIAWVRQMPGKGLEWMGIIYPADSDTRYSPSFQGQVTMSADQSINTAYLQWSSLKASDTAMYYCARRGREFDYWGQGTLLTVSS
VL: QSALTQPASVSGSPGQSITISCTGTSSDVGSYNLVSWYQQHPGKAPKLMIYEGSKRPSGVSNRFSGSKSGNTASLTISGLQAEDEADYYCCSYAGSSTPWVFGGGTKLTVL
notes: as for B6
binding result [5]: binds
